From patent US20240141071A1 (LAVA THERAPEUTICS N V, published 2024)
Changes are numbered by the printed parent chain. Values joined by “and” are separate entries in the source; they are usually repeats but may differ in a detail not shown here. Identical values can stand only once.

How the values were obtained:
[1] = molecular target: T1, recombinant purified CD123-Fc fusion protein (Bio-Techne/R&D Systems) (human, UniProt P26951 19-305); test: BLI, CD123-Fc on anti-human IgG Fc capture sensors; SD 4.3
T1 construct: Bought; also called Fc-fusion of the CD123 antigen; recombinant CD123
T1 sequence: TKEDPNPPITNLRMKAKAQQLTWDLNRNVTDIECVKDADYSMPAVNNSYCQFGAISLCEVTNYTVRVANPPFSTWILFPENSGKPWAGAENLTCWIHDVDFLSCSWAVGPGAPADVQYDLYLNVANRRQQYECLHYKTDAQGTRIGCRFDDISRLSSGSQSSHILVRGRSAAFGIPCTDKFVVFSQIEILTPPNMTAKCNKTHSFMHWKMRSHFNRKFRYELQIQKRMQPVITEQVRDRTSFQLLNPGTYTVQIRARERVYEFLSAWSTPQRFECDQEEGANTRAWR
Experimental: (§1) To determine the kinetics of binding of humanized 1D2-5C8var1 variants to CD123, recombinant purified CD123-Fc fusion protein (Bio-Techne/R&D Systems) was loaded to a density of 1 nm onto anti-human IgG Fc Capture sensors (using a concentration of 5 μg/ml) for an Octet Red96e (Sartorius) instrument. Different sensors were then dipped in different concentrations of humanized 1D2-5C8var1 variants, starting at 50 nM and two-fold dilutions thereof; dilutions were made in 10× kinetic buffer (10×KB) provided by the supplier. From the obtained sensorgrams, the kinetic association- and dissociation rate constants were determined by curve fitting. The association- and dissociation rate constants, when fitting was possible, were used to calculate the affinity of the humanized 1D2-5C8var1 variants for binding to CD123. […] For reference, the non-humanized (parental) 1D2 was included in these experiments.

[2] = molecular target: T1, recombinant purified CD123-Fc fusion …; test: BLI, CD123-Fc on anti-human IgG Fc capture sensors; SD 1.5
Experimental: as §1

[3] = molecular target: T1, recombinant purified CD123-Fc fusion …; test: BLI, CD123-Fc on anti-human IgG Fc capture sensors; SD 0.5
Experimental: as §1

[4] = molecular target: T2, BSA (bovine, UniProt P02769); test: ELISA, wells coated with 1% BSA (panel BSA), HRP anti-VHH detection
T2 construct: also called bovine serum albumin, negative control coating
Excerpt: FIG. 1: ELISA showing binding of all different bispecific VHHs to CD123, the Vγ9Vδ2 (GDT) TCR and BSA (as negative control). OD values are depicted; values are the mean of duplicate measurements; error bars indicate standard errors of the mean. A mono-valent anti-Vδ2 VHH was used as control for the TCR staining (“TCR control”) and a commercially available anti-CD123 antibody (“anti-CD123”) was used as control for the CD123 antigen coatings. “No AB” indicates a negative control without primary antibody.
Recombinant, purified CD123 antigen (extra-cellular domain; Sino Biological), or an Fc-fusion of the CD123 antigen (Bio-Techne/R&D Systems) was coated to the wells of an ELISA plate (Greiner) in PBS at a concentration of 2 μg/ml. As a negative control, wells were coated with 1% (w/v) BSA. An in-house designed, produced and purified recombinant form of the extra-cellular domains of the human Vγ9 and Vδ2 TCR chains fused to a human Fc was also coated as antigen at 2 μg/ml. After coating and blocking of the wells with 2% (w/v) BSA, bispecific VHH proteins were tested for binding at a saturating concentration of 50 nM and bound VHH was detected using an HRP-labeled anti-VHH antibody (Genscript) and staining using 3,3′,5,5′-tetramethylbenzidine (TMB)/H2O2.

[5] = molecular target: T3, human CD123 expressed on cells (human, UniProt P26951 19-378); test: cell-based or functional assay
[6] = molecular target: T1, recombinant purified CD123-Fc fusion …; test: BLI, CD123-Fc on anti-human IgG Fc capture sensors, Octet Red96e, two measurements
Experimental: To determine the kinetics of binding of 1D2-5C8var1 to CD123, recombinant purified CD123-Fc fusion protein (Bio-Techne/R&D Systems) was loaded to a density of 1nm onto anti-human IgG Fc Capture sensors (using a concentration of 5 μg/ml) for an Octet Red96e (Sartorius) instrument. Different sensors were then dipped in different concentrations of 1D2-5C8var1; dilutions were made in 10× kinetic buffer (10×KB) provided by the supplier. From the obtained sensorgrams, the kinetic association- and dissociation rate constants were determined by curve fitting.
The latter is depicted as straight lines in the figure. This was used to determine the kinetic association- and dissociation rate constants and thereby the affinity of the anti-CD123 VHH 1D2.

[7] = molecular target: T3, human CD123 expressed on cells; test: flow cytometry titration on 293F cells transiently expressing CD123; apparent affinity, EC50 by curve fitting
[8] = molecular target: human CD123 co-expressed with CD131 on 293F cells (human, UniProt P26951 19-378; P32927 17-897); test: flow cytometry titration on 293F cells transiently expressing CD123 and CD131, anti-VHH detection
Experimental: (§2) FIG. 3: Determination of the apparent affinity of 1D2-5C8var1 for binding to CD123 using flow cytometry. […] The geometric mean of the fluorescence intensity is plotted as a function of the antibody concentration used. The EC50 value was determined by curve fitting.
(§3) Expression constructs for human CD123 and for the common β chain of the receptor (CD131) were purchased from Invivogen. Plasmids were transformed to chemically competent DH5α bacteria and a single colony growing on selective medium was used to inoculate a 50 ml culture to amplify both constructs. […] Either plasmid alone, or a mix of the two plasmids was used for transfection. As negative control, untransfected cells were also used for flow cytometry. A day after transfection, cells were used to test the binding of the bispecific VHH using staining in FACS. Briefly, binding of a saturating concentration of 100 nM bispecific VHH to transfected cells was detected with an AF647-labeled anti-VHH (Genscript) antibody and staining was visualized using a FACS Celesta (Becton and Dickinson).
(§4) The former cells (expressing CD131) were used as negative control.

[9] = molecular target: T4, human CD131 (common β chain of the IL3 receptor) expressed on 293F cells (human, UniProt P32927 17-897); test: flow cytometry on 293F cells transiently expressing CD131, AF647-labeled anti-VHH detection
T4 sequence: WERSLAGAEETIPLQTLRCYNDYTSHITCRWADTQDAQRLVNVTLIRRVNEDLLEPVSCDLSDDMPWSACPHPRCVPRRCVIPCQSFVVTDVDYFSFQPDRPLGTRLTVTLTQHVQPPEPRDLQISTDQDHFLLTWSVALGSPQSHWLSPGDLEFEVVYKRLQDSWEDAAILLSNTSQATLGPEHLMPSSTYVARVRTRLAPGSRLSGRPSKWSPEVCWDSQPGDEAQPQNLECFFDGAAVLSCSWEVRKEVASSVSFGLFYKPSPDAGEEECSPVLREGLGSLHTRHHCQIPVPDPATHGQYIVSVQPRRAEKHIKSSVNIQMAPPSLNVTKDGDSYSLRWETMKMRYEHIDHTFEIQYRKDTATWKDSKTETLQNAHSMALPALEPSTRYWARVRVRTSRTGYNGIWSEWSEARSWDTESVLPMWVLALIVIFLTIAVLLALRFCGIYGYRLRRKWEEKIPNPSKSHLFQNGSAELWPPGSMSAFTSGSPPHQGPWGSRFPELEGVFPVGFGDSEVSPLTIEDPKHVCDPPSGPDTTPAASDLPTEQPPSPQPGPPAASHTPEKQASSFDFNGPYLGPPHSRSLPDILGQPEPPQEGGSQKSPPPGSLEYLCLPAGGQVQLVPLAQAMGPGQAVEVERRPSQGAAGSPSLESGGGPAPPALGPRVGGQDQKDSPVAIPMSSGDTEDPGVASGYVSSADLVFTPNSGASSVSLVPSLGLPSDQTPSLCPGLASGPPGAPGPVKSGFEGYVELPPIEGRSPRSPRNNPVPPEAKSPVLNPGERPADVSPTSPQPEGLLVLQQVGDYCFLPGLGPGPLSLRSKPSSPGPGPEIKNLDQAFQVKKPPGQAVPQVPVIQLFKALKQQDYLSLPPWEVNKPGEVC
Experimental: as §3

[10] = molecular target: T3, human CD123 expressed on cells; test: flow cytometry titration on 293F cells transiently expressing CD123, anti-VHH detection
Experimental: as §2, §3, §4

[11] = molecular target: T1, recombinant purified CD123-Fc fusion …; test: BLI, CD123-Fc on anti-human IgG Fc capture sensors; SD 0.7
Experimental: as §1

[12] = molecular target: T1, recombinant purified CD123-Fc fusion …; test: BLI, CD123-Fc on anti-human IgG Fc capture sensors; SD 0.4
Experimental: as §1

[13] = molecular target: T1, recombinant purified CD123-Fc fusion …; test: BLI, CD123-Fc on anti-human IgG Fc capture sensors, Octet Red96e
Experimental: as §1

T2 sequence (P02769 25-607 limits assumed): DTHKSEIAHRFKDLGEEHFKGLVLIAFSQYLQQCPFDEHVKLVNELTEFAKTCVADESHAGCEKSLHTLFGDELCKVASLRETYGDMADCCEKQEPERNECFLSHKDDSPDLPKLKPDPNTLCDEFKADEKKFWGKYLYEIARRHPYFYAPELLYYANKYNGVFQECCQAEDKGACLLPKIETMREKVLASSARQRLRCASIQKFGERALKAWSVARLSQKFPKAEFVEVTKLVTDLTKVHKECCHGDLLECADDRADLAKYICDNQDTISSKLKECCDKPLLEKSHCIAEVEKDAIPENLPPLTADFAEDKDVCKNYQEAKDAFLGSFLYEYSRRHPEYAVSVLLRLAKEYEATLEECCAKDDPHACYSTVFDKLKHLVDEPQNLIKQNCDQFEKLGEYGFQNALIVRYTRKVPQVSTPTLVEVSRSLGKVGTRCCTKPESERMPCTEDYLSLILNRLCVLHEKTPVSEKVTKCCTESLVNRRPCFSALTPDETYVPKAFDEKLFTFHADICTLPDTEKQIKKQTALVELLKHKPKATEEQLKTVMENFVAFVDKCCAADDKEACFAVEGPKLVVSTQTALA

B1: humanized 1D2-5C8var1 variant with 1D2 var3 (SEQ ID NO:27) (bispecific antibody)
chain: EVQLVESGGGLVQPGGSLRLSCAASGRTASSYVMSWFRQAPGKEREWVAVINWNGDSTYYADSVKGRFTISRDNSKNTVYLQMNSLRAEDTAVYYCAADTRREWYRDGYWGPPARYEYDYRGQGTLVTVSSGGGGSEVQLLESGGGSVQPGGSLRLSCAASGRPFSNYAMSWFRQAPGKEREFVSAISWSGGSTSYADSVKGRFTISRDNSKNTLYLQMNSLRAEDTAVYYCAAQFSGADYGFGRLGIRGYEYDYWGQGTQVTVSSAAAEPEA
notes: See note of m19
Kd [1]: 14.9 nM

B2: humanized 1D2-5C8var1 variant with 1D2 var5 (SEQ ID NO:29) (bispecific antibody)
chain: B1 chain with W47F
notes: See note of m19
Kd [2]: 7.7 nM

B3: humanized 1D2-5C8var1 variant with 1D2 var9 (SEQ ID NO:33) (bispecific antibody)
chain: B1 chain with P14A, S35G, A61T, T69A, S75A, L126Q
notes: See note of m19
Kd [3]: 2.6 nM

B4: 1D2-5C8var1 bispecific VHH (bispecific antibody)
chain: B1 chain with P14A, S35G, W47F, A61T, T69A, S75A, R87K, A88P, L126Q
notes: Orientation N-term-anti-CD123 VHH-linker-anti-Vδ2 VHH-C-tag; also called parental 1D2
binding result [4]: no binding (tested: 50 nM (single concentration)) | EC50 for cytotoxicity, C1R-neo target cell lysis by Vγ9Vδ2 T cells, 24 h [5]: 0.001 to 0.002 nM | EC50 of T cell activation and lysis of primary AML blasts [5]: < 0.001 nM | EC50 of THP-1 target cell lysis by Vγ9Vδ2 T cells [5]: 1000 nM | EC50 of THP-1 target cell lysis by Vγ9Vδ2 T cells, 24 h [5]: 0.001 to 0.003 nM | Kd [6]: 3 to 5 nM and 5 nM | EC50 [7]: ~3 nM | EC50 (read off the curve) [8]: ~3 nM | binding result [9]: no binding (tested: 100 nM (single concentration)) | EC50 (read off the curve) [10]: ~3 nM | Kd [11]: 3.1 nM

B5: humanized 1D2-5C8var1 variant with 1D2 var1 (SEQ ID NO:25) (bispecific antibody)
chain: B1 chain with S35G, W47F, A49S, V79L, L126Q
Kd [12]: 7.2 nM

B6: humanized 1D2-5C8var1 variant with 1D2 var7 (SEQ ID NO:31) (bispecific antibody)
chain: B1 chain with F37V, E44G, R45L, A49S, V79L
notes: See note of m19
binding result [13]: no binding (tested: 50 nM (highest concentration tested))
